Data from patent US20080152587A1 (Amgen, published 2008).
Residue numbers refer to the chain shown, from its start. Blank lines part the entries; values can stand above or below the binder they belong to.

Experiments:
[1] = target: T1, murine uPAR (form not stated) (mouse, UniProt P35456 24-297, limits assumed); assay: summary column Murine X-reactivity
T1 construct: also called mouse uPAR
T1 sequence (looked up): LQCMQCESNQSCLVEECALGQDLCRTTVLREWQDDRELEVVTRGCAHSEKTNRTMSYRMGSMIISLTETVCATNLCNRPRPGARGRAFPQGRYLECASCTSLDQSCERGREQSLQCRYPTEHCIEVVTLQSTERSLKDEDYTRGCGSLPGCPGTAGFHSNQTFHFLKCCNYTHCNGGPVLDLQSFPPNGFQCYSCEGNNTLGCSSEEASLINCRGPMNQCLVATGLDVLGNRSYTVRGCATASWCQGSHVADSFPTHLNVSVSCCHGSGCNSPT

[2] = target: T2, soluble recombinant human uPAR/His6 (R&D Systems, Cat. # 807-UK-100) (human, UniProt Q03405 23-303); assay: low resolution Biacore, mAb captured by goat anti-human, hu-uPAR 312 nM;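 also: surface plasmon resonance on a CM5 chip with goat anti-human antibody surface made by amine coupling, each mAb from supernatant captured per flow cell, kinetics fitted including mass transport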
T2 construct: range 1-303; Bought protein; also called soluble uPAR; hu-uPAR
T2 sequence (Q03405 other isoform, or with tags, fused parts or gaps limits assumed, form in doubt): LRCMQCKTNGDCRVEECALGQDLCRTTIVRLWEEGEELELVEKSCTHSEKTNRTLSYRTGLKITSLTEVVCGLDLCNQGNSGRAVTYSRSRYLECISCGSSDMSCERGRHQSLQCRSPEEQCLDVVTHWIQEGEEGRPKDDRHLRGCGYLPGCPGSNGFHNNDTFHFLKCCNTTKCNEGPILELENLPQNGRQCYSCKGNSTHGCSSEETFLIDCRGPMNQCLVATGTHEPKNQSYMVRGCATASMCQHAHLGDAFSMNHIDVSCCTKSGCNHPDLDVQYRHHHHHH
Protocol: (§1) A high-density goat anti-human antibody surface over a CM5 Biacore™ chip was prepared using routine amine coupling. […] Each mAb was captured on a separate flow cell using a 30-second contact time at 10 μL/min followed by a 5-minute wash at a 100 μL/min flow rate for stabilization of the mAb baseline. […] All antigen samples were prepared in the running buffer.
A mass transport coefficient was used in fitting the data.

[3] = target: T3, human urokinase-type plasminogen activator receptor (uPAR, CD87), cell-bound (human, UniProt Q03405 23-305); assay: FACS, cells expressing human uPAR, line material
T3 construct: whole, on cells; On B300.19 or L929 transfectants (full length cDNA), or native on U937 and PC-3 cells
T3 sequence (Q03405 23-305): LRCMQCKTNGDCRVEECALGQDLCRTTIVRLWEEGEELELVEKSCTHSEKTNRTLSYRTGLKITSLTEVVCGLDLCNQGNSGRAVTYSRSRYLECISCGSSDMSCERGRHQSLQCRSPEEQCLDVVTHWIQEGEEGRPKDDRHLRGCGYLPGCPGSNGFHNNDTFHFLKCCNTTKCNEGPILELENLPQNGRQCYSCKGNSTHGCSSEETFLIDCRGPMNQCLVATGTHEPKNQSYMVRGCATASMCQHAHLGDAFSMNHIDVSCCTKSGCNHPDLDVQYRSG

[4] = target: T3, human urokinase-type plasminogen …; assay: cell-based or functional assay
[5] = target: T4, cynomolgus monkey uPAR, cell-bound (cynomolgus monkey, UniProt Q9GK78 23-305); assay: FACS, GeoMean; cynomolgus uPAR expressed on 293T cells; antibody concentration not given
T4 construct: whole, on cells; also called cyno-uPAR
T4 sequence (Q9GK78 23-305): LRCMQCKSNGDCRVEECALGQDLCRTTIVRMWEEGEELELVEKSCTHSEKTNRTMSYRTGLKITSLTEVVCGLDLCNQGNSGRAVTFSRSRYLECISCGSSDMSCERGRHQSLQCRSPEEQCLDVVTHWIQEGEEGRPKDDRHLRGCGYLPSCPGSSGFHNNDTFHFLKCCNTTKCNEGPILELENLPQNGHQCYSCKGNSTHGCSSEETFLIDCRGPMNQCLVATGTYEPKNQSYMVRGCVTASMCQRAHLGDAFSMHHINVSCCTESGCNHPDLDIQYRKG

[6] = target: T3, human urokinase-type plasminogen …; assay: cell-based or functional assay; remark: listed apart in the source
[7] = target: T2, soluble recombinant human uPAR/His6 …; assay: low resolution Biacore
Protocol: as §1

[8] = target: T3, human urokinase-type plasminogen …; assay: FACS, U937 cells, mAb 5 µg/ml on ice, alexa647 goat anti-human F(ab), not stripped
Protocol: A cell suspension containing 100,000 cells was pipetted into each well of a V-bottom plates in duplicate. Two V-bottom plates were prepared, one to be kept at 37° C. during internalization with antibody complex, and the other to be incubated at 4° C. Each of the eight uPAR mAbs was incubated with U937 cells at 5 μg/ml on ice for 15 min. Incubation on ice was necessary to prevent internalization of the primary mAbs. The cells were then washed with cold FACS buffer. Cells were subsequently incubated on ice in 100 μl of 5 μg/ml alexa647-labelled goat anti-humanF(ab) (Invitrogen catalogue number A21249) in cold FACS buffer for 15 min. This allowed the goat FAB bind to the bound uPAR mAbs without permitting any internalization. After a 15 minute incubation on ice, one plate was kept on ice, while the other plate was incubated at 37° C. for 1 hour.
Following the 1 hr incubation with the mAb-FAB complex, the cells were washed twice with cold 5% FACS buffer, and 200 μl of Tris(2-carboxyethyl)phosphine HCl (TCEP) was added to each well as a stripping agent. The plates were both incubated with TCEP on ice for 1 hour, followed by washing and resuspending with FACS buffer. 4 μl of 7-Amino-Actinomycin D (7AAD) was added to each well, followed by 10 min incubation on ice before FACS analysis was conducted.

[9] = target: T5, mouse uPAR on the surface of NCTC L929 cells (mouse, UniProt P35456 24-298); assay: FACS, NCTC L929 mouse cells
T5 construct: whole, on cells; also called cell surface mouse uPAR
T5 sequence (looked up): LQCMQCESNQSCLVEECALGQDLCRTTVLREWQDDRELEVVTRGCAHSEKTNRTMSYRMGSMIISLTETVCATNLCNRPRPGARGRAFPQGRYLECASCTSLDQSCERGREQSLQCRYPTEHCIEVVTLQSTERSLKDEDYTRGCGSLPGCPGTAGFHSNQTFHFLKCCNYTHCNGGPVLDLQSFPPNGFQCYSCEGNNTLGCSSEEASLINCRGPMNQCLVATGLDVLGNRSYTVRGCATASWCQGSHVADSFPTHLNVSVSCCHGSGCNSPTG
Protocol: (§2) To make the mouse cross-reactivity results conclusive, direct binding of the mAbs to cell-bound mouse uPAR was measured using FACS analysis. The mouse cell line derived from the connective tissue, NCTC L929, was employed for FACS analysis. The harvested cells were resuspended at 50,000 cells/well using FACS buffer into a V-bottom plate which was put on ice. […] After washing, Cy5-labeled goat anti-human IgG Fc at 5 μg/ml and 7AAD at 5 μg/ml was added. The mixtures were incubated for 15 min on ice, washed and resuspended in cold FACS buffer for FACS analysis.

[10] = target: T3, human urokinase-type plasminogen …; assay: FACS competition with FITC-tc-uPA, line material
Description: (§3) Briefly, murine fibroblast L929 cells (ATCC) were transfected to express human uPAR.

[11] = target: T5, mouse uPAR on the surface of NCTC L929 …; assay: FACS, NCTC L929 mouse cells, mAb 6.25 µg/ml
Protocol: as §2

[12] = target: T3, human urokinase-type plasminogen …; assay: FACS, B300.19 cells expressing human uPAR, anti-human gamma Cy5
[13] = target: T2, soluble recombinant human uPAR/His6 …; assay: limited antigen ELISA, uPAR coat 80 ng/mL, sample 1:25
Protocol: (§4) ELISA plates were coated with a lower amount ofuPAR in comparison with the High Antigen Quantitation assay described below (320, 160, 80, 40 and 20 ng/mL). Samples containing one concentration of antibody (Ab) (1:25 dilution) were incubated overnight to allow Ab binding to approach equilibrium.

[14] = target: T6, human Ly6e with a myc tag, expressed in HEK293T cells (human, UniProt Q16553 21-101); assay: FACS, HEK293T cells expressing Ly6e, supernatant 1:2
T6 construct: whole, on cells; not shown: myc tag fused on the molecule
T6 sequence (looked up): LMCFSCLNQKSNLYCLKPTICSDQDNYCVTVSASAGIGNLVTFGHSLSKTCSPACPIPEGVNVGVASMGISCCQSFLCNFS

[15] = target: T2, soluble recombinant human uPAR/His6 …; assay: limited antigen ELISA, uPAR coat 20 ng/mL, sample 1:25
Protocol: as §4

[16] = target: T3, human urokinase-type plasminogen …; assay: FACS competition, FITC-tc-uPA on L929 cells expressing human uPAR, supernatant 1:2
Description: as §3

binding result [1]: no binding | Kd [2]: 3.5 nM | koff [2]: 0.00042 s⁻¹ | kon [2]: 120000 M⁻¹ s⁻¹ | Ab to cell bound Ag (line material, FACS) [3]: 514 | Plasminogen activation inhibition (IC50, ug/ml) [4]: 0.066 µg/mL | binding result [5]: binds | inhibition of plasminogen activation on U937 cells [6]: > 90% | Kd [7]: 3.5 nM | geo mean cold - TCEP [8]: 42.5 | binding result [9]: no binding (tested: 6.25 µg/ml) | Human uPAR/uPA binding inhibition (%, line material) [10]: 78% | X Geo Mean [11]: 11.7
B1: anti-uPAR monoclonal antibody 1.99.1 (antibody, V domains shown)
VH: EVQLVESGGGLIQPGGSLRLSCAASGFTVRSNYMSWVRQAPGKGLEWISVIYTGGSTYYADSVKGRFSISRDNSKNTLYLQMNSLRAEDTAVYYCAREGAVAGFDYWGQGTLVTVSS
VL: EIVMTQSPATLSVSPGERATLSCRASQSISSNLAWYQQKPGQAPRLLIYGASTRATGIPARFSGSGSGTEFTLTISSLQSEDFAVYYCQQYTNWPLTFGGGTKVEIK

binding result [1]: no binding | gCy5 Geo Mean Pos Cells [12]: 412 | LA at 80 ng/ml [13]: 1.03 | Kd [2]: 2.7 nM | koff [2]: 0.00032 s⁻¹ | kon [2]: 120000 M⁻¹ s⁻¹ | Plasminogen activation inhibition (IC50, ug/ml) [4]: 0.056 µg/mL | binding result [14]: no binding (tested: GeoMean ratio 1.95) | LA at 20 ng/ml [15]: 0.16 | binding result [5]: binds | inhibition of plasminogen activation on U937 cells [6]: > 90% | Kd [7]: 2.7 nM | geo mean cold - TCEP [8]: 46 | binding result [9]: no binding (tested: 6.25 µg/ml) | uPA/uPAR binding Inhibition % [16]: 77% | Human uPAR/uPA binding inhibition (%, line material) [10]: 77% | X Geo Mean [11]: 9.59
B2: anti-uPAR monoclonal antibody 4.19.1 (antibody, V domains shown)
VH: EVQLVESGGGLIQPGGSLRLSCAASGFSVSSNYMNWVRQAPGKGLEWVSVIYTGGSTYYADSVKGRFTISRDNSKNTLYLQMNSLRAEDTAVYYCARDTYLYGMDVWGQGTTVTVSS
VL: B1 VL with R18S, A25T, I29V, A43T, T53A, I58V, T92Y

binding result [1]: no binding | gCy5 Geo Mean Pos Cells [12]: 317 | LA at 80 ng/ml [13]: 0.21 | Kd [2]: 20.6 nM | koff [2]: 0.0013 s⁻¹ | kon [2]: 63000 M⁻¹ s⁻¹ | Plasminogen activation inhibition (IC50, ug/ml) [4]: 0.067 µg/mL | binding result [14]: no binding (tested: GeoMean ratio 1.95) | LA at 20 ng/ml [15]: 0.06 | binding result [5]: binds | inhibition of plasminogen activation on U937 cells [6]: > 90% | Kd [7]: 20.6 nM | geo mean cold - TCEP [8]: 33.4 | binding result [9]: no binding (tested: 6.25 µg/ml) | uPA/uPAR binding Inhibition % [16]: 71% | Human uPAR/uPA binding inhibition (%, line material) [10]: 71% | X Geo Mean [11]: 8.97
B3: anti-uPAR monoclonal antibody 4.12.1 (antibody, V domains shown)
VH: EVQLVESGGGLVQPGGSLRLSCAASGFTFSSYWMSWVRQAPGTGLDWVANINQDGSERYYVDSVKGRFTISRDNAKNSPHLQMNSLRAEDTAVYYCAREGSGGRYGGWYFDLWGRGTLVTVSS
VL: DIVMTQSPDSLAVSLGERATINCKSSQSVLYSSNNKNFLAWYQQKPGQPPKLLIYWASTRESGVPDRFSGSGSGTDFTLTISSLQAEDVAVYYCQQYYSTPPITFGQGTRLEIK
